The source of these data is paper PMC2809015.

Test [1] addresses HscB, co-chaperone of HscA (E. coli) (UniProt P0A6L9).
Test [2] deals with IscA, FeS cluster assembly scaffold protein (E. coli) (UniProt P0AAC8).
The target of test [3] is IscU, FeS cluster assembly scaffold protein (E. coli) (UniProt P0ACD4).
The target of another test is IscU (Escherichia coli) (UniProt P0ACD4). The test is described as follows: surface plasmon resonance. The following applies: cited from earlier work. (In SPR one partner is held on a chip, and binding of the other changes the refractive index at the surface.)
Chain of IscU (Escherichia coli) (P0ACD4 whole entry): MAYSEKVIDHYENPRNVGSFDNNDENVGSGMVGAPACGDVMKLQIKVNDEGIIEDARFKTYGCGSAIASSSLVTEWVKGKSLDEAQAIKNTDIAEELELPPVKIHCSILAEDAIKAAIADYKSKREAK

Chain of IscA, FeS cluster assembly scaffold protein (E. coli) (P0AAC8 whole entry): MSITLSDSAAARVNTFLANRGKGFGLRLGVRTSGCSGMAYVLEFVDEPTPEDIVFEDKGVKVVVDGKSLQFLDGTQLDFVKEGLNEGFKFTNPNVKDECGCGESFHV
Chain of IscU, FeS cluster assembly scaffold protein (E. coli) (P0ACD4 whole entry): as the sequence (P0ACD4 whole entry) above
Chain of HscB, co-chaperone of HscA (E. coli) (P0A6L9 whole entry): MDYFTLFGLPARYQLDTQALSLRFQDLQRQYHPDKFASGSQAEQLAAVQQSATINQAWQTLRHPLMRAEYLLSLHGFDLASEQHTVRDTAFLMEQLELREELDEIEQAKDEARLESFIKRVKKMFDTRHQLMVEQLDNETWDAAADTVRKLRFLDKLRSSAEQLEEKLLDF
Chain of HscA (P0A6Z1 whole entry): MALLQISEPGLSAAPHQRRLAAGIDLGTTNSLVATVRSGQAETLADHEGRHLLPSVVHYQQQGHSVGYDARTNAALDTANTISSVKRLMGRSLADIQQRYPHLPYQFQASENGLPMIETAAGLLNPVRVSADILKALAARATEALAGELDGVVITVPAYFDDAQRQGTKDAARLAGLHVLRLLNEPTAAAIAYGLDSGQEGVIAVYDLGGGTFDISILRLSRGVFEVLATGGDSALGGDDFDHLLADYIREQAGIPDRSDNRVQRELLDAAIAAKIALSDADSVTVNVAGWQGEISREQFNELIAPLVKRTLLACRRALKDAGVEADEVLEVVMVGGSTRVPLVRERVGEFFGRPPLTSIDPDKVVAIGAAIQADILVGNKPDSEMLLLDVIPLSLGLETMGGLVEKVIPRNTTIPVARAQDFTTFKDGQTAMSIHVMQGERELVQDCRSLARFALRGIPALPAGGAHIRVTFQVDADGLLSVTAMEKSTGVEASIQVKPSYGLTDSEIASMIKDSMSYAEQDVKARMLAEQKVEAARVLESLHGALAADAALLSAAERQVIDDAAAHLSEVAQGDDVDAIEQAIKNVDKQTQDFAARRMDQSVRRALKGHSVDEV
Chain of Biotin synthase (BioB), cluster state not stated for the experiment (P12996 whole entry): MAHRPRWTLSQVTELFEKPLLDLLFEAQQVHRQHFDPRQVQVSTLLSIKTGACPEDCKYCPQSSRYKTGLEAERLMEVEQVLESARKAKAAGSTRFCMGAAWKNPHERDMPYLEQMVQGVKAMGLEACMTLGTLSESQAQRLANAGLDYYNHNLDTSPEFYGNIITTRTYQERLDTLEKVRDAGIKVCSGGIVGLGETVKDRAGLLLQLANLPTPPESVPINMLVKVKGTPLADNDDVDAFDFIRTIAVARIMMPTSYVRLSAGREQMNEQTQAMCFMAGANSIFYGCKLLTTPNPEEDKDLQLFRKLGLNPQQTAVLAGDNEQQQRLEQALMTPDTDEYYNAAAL

As usually defined, the Kd is the constant that tells how readily two partners part at equilibrium. On to “Biotin synthase (BioB), cluster state not stated for the experiment (from UniProt P12996 1-346) (enzyme)”, for which the Kd in test [1], in test [2] and in test [3] was more than 10 µM throughout.

Consider HscA (from UniProt P0A6Z1), for which the Kd in the test with IscU (Escherichia coli) was 9.3 µM.
